In publication PMC4622731 (mAbs, 2015):

Columns and labels:
[1] = biological target: cynomolgus IL-1α (Macaca fascicularis) (UniProt P79340)
[2] = biological target: cynomolgus IL-1β (Macaca fascicularis) (UniProt P79182)
human IL-1α (human) [3] = biological target: human IL-1α (human) (UniProt P01583)
human IL-1β (human) [4] = biological target: human IL-1β (human) (UniProt P01584)
[5] = biological target: cynomolgus IL-1α (Macaca fascicularis) (UniProt P79340); remark: listed apart in the source
[6] = biological target: cynomolgus IL-1β (Macaca fascicularis) (UniProt P79182); remark: listed apart in the source
human IL-1α (human) [7] = biological target: human IL-1α (human) (UniProt P01583); remark: listed apart in the source
human IL-1β (human) [8] = biological target: human IL-1β (human) (UniProt P01584); remark: listed apart in the source
[9] = biological target: biotinylated human IL-1α (Homo sapiens) (UniProt P01583); experiment: ELISA; mAb or DVD-Ig (2 μg/mL) captured by anti-human Fc antibody coated on the plate; biotinylated human IL-1α or IL-1β titrated 1000 ng/mL to 0.597 pg/mL, 1 hour at 25°C; peroxidase-labeled streptavidin
[10] = biological target: biotinylated human IL-1β (Homo sapiens) (UniProt P01584); experiment: as above
[11] = biological target: cynomolgus IL-1α (Macaca fascicularis) (UniProt P79340); experiment: SPR; Biacore 3000; mAb or DVD-Ig captured by goat anti-human IgG Fc on a CM5 chip; IL-1 10-200 nM flowed at 25 μL/min; HBS-EP (10 mM HEPES pH 7.4, 150 mM NaCl, 3 mM EDTA, 0.005% P20), 25°C; 1:1 Langmuir global fit, KD = koff/kon
[12] = biological target: cynomolgus IL-1β (Macaca fascicularis) (UniProt P79182); experiment: as above
human IL-1α (human) [13] = biological target: human IL-1α (human) (UniProt P01583); experiment: as above
human IL-1β (human) [14] = biological target: human IL-1β (human) (UniProt P01584); experiment: as above
human IL-1β [15] = biological target: T1, human IL-1β (Homo sapiens, UniProt P01584); experiment: cell-based or functional assay
T1 sequence (P01584 whole entry): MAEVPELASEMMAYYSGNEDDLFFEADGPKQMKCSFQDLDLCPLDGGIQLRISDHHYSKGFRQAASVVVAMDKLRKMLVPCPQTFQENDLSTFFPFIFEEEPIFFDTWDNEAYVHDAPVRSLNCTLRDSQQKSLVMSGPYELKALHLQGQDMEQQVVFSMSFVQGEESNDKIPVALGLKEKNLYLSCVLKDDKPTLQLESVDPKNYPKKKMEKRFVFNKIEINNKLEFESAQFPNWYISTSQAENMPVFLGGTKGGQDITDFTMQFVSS

human IL-1β [16] = biological target: T1, human IL-1β; experiment: SPR; Biacore 3000; mAb or DVD-Ig captured by goat anti-human IgG Fc on a CM5 chip; IL-1 10-200 nM flowed at 25 μL/min; HBS-EP (10 mM HEPES pH 7.4, 150 mM NaCl, 3 mM EDTA, 0.005% P20), 25°C; 1:1 Langmuir global fit, KD = koff/kon; conditions: both partners purified

Sequence of cynomolgus IL-1β (Macaca fascicularis) (P79182 whole entry): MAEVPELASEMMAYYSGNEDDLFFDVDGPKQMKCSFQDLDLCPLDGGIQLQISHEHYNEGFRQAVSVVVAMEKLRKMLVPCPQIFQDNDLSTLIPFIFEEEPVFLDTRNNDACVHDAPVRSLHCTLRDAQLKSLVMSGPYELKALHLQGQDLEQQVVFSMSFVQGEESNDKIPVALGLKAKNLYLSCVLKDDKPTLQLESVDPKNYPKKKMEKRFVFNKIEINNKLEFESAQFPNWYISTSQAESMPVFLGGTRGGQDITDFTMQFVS
Sequence of human IL-1α (human) (P01583 whole entry): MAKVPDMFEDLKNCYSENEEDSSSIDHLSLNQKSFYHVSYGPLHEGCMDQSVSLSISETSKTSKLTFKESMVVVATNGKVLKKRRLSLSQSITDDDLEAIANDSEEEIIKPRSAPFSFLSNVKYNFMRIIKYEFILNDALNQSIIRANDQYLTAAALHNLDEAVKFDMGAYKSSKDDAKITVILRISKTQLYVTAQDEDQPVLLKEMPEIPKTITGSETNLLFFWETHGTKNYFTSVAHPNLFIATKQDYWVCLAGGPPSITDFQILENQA
Sequence of cynomolgus IL-1α (Macaca fascicularis) (P79340 whole entry): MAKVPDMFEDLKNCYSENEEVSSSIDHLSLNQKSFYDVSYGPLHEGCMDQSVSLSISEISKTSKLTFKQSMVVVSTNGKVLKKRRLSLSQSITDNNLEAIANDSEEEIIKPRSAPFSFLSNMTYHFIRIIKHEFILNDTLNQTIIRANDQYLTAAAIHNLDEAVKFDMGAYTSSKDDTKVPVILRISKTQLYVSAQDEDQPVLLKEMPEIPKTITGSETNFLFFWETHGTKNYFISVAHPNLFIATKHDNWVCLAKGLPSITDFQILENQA
Sequence of human IL-1β (human) (P01584 whole entry): as the sequence (P01584 whole entry) above

## ABT-981 (bispecific antibody)
[1]
  Neutralization potency IC50, MRC-5 cell bioassay: IL-8 release on 3 pM cynomolgus IL-1α: 955 pM
[2]
  Neutralization potency IC50, MRC-5 cell bioassay: IL-8 release on 3 pM cynomolgus IL-1β: 8.4 pM
Human IL-1α (human) [3]
  Neutralization potency IC50, MRC-5 cell bioassay: IL-8 release on 3 pM human IL-1α: 16.2 pM
Human IL-1β (human) [4]
  Neutralization potency IC50, MRC-5 cell bioassay: IL-8 release on 3 pM human IL-1β: 16 pM
[5]
  ED50, Average: dose of ABT-981 inhibiting mouse IL-6 induced by 30 ng cynomolgus IL-1α in C57/BL6 mice: 6.5 mg/kg
  ED50, Expt #1: dose of ABT-981 inhibiting mouse IL-6 induced by 30 ng cynomolgus IL-1α in C57/BL6 mice: 5.2 mg/kg
  ED50, Expt #2: dose of ABT-981 inhibiting mouse IL-6 induced by 30 ng cynomolgus IL-1α in C57/BL6 mice: 7.7 mg/kg
  ED80, Average: dose of ABT-981 inhibiting mouse IL-6 induced by 30 ng cynomolgus IL-1α in C57/BL6 mice: 18.2 mg/kg
  ED80, Expt #1: dose of ABT-981 inhibiting mouse IL-6 induced by 30 ng cynomolgus IL-1α in C57/BL6 mice: 16.1 mg/kg
  ED80, Expt #2: dose of ABT-981 inhibiting mouse IL-6 induced by 30 ng cynomolgus IL-1α in C57/BL6 mice: 20.2 mg/kg
[6]
  ED50, Average: dose of ABT-981 inhibiting mouse IL-6 induced by 30 ng cynomolgus IL-1β in C57/BL6 mice: 0.004 mg/kg
  ED50, Expt #1: dose of ABT-981 inhibiting mouse IL-6 induced by 30 ng cynomolgus IL-1β in C57/BL6 mice: 0.002 mg/kg
  ED50, Expt #2: dose of ABT-981 inhibiting mouse IL-6 induced by 30 ng cynomolgus IL-1β in C57/BL6 mice: 0.006 mg/kg
  ED80, Average: dose of ABT-981 inhibiting mouse IL-6 induced by 30 ng cynomolgus IL-1β in C57/BL6 mice: 0.094 mg/kg
  ED80, Expt #1: dose of ABT-981 inhibiting mouse IL-6 induced by 30 ng cynomolgus IL-1β in C57/BL6 mice: 0.098 mg/kg
  ED80, Expt #2: dose of ABT-981 inhibiting mouse IL-6 induced by 30 ng cynomolgus IL-1β in C57/BL6 mice: 0.11 mg/kg
Human IL-1α (human) [7]
  ED50, Average: dose of ABT-981 inhibiting mouse IL-6 induced by 30 ng human IL-1α in C57/BL6 mice: 0.005 mg/kg
  ED50, Expt #1: dose of ABT-981 inhibiting mouse IL-6 induced by 30 ng human IL-1α in C57/BL6 mice: 0.007 mg/kg
  ED50, Expt #2: dose of ABT-981 inhibiting mouse IL-6 induced by 30 ng human IL-1α in C57/BL6 mice: 0.002 mg/kg
  ED80, Average: dose of ABT-981 inhibiting mouse IL-6 induced by 30 ng human IL-1α in C57/BL6 mice: 0.104 mg/kg
  ED80, Expt #1: dose of ABT-981 inhibiting mouse IL-6 induced by 30 ng human IL-1α in C57/BL6 mice: 0.17 mg/kg
  ED80, Expt #2: dose of ABT-981 inhibiting mouse IL-6 induced by 30 ng human IL-1α in C57/BL6 mice: 0.04 mg/kg
Human IL-1β (human) [8]
  ED50, Average: dose of ABT-981 inhibiting mouse IL-6 induced by 30 ng human IL-1β in C57/BL6 mice: 0.016 mg/kg
  ED50, Expt #1: dose of ABT-981 inhibiting mouse IL-6 induced by 30 ng human IL-1β in C57/BL6 mice: 0.02 mg/kg
  ED50, Expt #2: dose of ABT-981 inhibiting mouse IL-6 induced by 30 ng human IL-1β in C57/BL6 mice: 0.012 mg/kg
  ED80, Average: dose of ABT-981 inhibiting mouse IL-6 induced by 30 ng human IL-1β in C57/BL6 mice: 0.28 mg/kg
  ED80, Expt #1: dose of ABT-981 inhibiting mouse IL-6 induced by 30 ng human IL-1β in C57/BL6 mice: 0.27 mg/kg
  ED80, Expt #2: dose of ABT-981 inhibiting mouse IL-6 induced by 30 ng human IL-1β in C57/BL6 mice: 0.32 mg/kg
[9]
  EC50: 0.0064 nM
[10]
  EC50: 0.0075 nM
[11]
  Kd: 0.411 nM
[12]
  Kd: 0.0153 nM
Human IL-1α (human) [13]
  Kd: 0.0076 nM
Human IL-1β (human) [14]
  Kd: 0.021 nM

B1: humanized SK48-E26 mAb (antibody, V domains shown)
VH: EVQLVESGGGVVQPGRSLRLSCSSSGFIFSSYDMSWVRQAPGKGLEWVAYISSGGGGTYYPDTVKGRFTISRDNSKNTLFLQMDSLRPEDTGVYFCARGGVTKGYFDVWGQGTPVTVSS
VL: DIQMTQSPSSLSASVGDRVTITCRASGNIHNYLTWYQQTPGKAPKLLIYNAKTLADGVPSRFSGSGSGTDYTFTISSLQPEDIATYYCQHFWSIPYTFGQGTKLQIT
Human IL-1β [15]
  Neutralization potency IC50, MRC-5 cell bioassay: IL-8 release on 3 pM human IL-1β: 400 pM
Human IL-1β [16]
  Kd: 0.242 nM
